The results in this text go back to patent publication US20220249369.

In data set [1] the test system is T1, CC6, 5FAM-KYLGRSYKV-K(CPQ2)-C.
T1 sequence: KYLGRSYKVKC

For data set [2], the system named is T2, CC9, 5FAM-GLQRALEI-K(CPQ2)-k-C.
T2 sequence: GLQRALEIKKC

The test system of data set [3] is T3, QARGGSK.
T3 sequence: QARGGSK

In data set [4] the test system is T4, KTTGGRIYGG
T4 sequence: KTTGGRIYGG

Chain of Plasmin (P00747 20-580): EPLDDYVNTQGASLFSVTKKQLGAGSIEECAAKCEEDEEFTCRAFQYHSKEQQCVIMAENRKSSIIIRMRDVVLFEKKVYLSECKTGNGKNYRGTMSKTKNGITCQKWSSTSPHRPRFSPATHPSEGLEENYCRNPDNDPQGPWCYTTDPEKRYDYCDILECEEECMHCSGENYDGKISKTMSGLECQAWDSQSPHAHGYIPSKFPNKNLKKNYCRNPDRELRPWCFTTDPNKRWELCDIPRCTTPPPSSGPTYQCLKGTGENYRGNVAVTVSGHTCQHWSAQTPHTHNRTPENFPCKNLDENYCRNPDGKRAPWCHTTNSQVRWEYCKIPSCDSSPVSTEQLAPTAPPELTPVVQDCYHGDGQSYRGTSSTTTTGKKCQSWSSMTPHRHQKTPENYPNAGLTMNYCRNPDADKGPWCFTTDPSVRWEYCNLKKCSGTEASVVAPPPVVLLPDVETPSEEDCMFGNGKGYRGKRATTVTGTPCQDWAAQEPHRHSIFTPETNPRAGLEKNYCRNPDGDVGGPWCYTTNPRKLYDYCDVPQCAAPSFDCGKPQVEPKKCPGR
Chain of Plasmin (P00747 581-810): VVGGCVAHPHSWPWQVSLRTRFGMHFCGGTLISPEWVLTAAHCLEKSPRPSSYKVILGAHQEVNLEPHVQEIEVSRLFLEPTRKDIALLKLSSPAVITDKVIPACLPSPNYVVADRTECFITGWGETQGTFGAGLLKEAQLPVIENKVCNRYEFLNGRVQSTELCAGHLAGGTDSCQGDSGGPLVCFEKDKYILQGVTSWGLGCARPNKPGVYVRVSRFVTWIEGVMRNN

In the case of Plasmin, in data set [1], the “relative cleavage velocity (L-gate)” value is “adding substrate-1 (KYLGRSYKV (SEQ ID NO:5)) to control b0 (e.g., plasmin) and target bi (e.g., thrombin) at a concentration such that the relative cleavage velocities (rcv) were matched”; the “relative cleavage velocity (state 1 probability) after the first U-gate” value worked out at 55%. In addition, in data set [2], the “relative cleavage velocity (state 0 probability) after the first U-gate” value is 45% and the “relative cleavage velocity (state 0 probability) after the second U-gate (state 0 substrate in large molar excess)” value is given as 93%.

Consider Thrombin, for which the protease cleavage velocity entry in data set [3] was “thrombin cleaving two different peptide substrates (KTTGGRIYGG (SEQ ID NO:2) and QARGGSK (SEQ ID NO:3))”; in data set [4] it was “thrombin cleaving two different peptide substrates (KTTGGRIYGG (SEQ ID NO:2) and QARGGSK (SEQ ID NO:3))”. In data set [1], the “relative cleavage velocity (L-gate)” value was “adding substrate-1 (KYLGRSYKV (SEQ ID NO:5)) to control b0 (e.g., plasmin) and target bi (e.g., thrombin) at a concentration such that the relative cleavage velocities (rcv) were matched”.
